Test results published in US20250147051A1 (GTINVENT, published 2025).
Like-named read-outs stand apart in the source and are kept apart here.

Key:
[1] = target: T1, full length human tau protein 2N4R (hT40) (human, UniProt P10636 1-758); assay: sandwich ELISA, S1D12 mAb capture, colourimetric detection
T1 construct: recombinant protein; also called T441
Method: (§1) Full length tau (hT40), at 1 μg/ml starting concentration was added to designated wells and double diluted across rest of the plates and left to incubate at R/T for 1 h. A series of detection scAbs with varying epitope recognition properties were added at 10 μg/ml to designated wells (FIG. 22). For colourimetric detection HRP conjugated anti-HuCk secondary antibody was used and the resulting immunoreaction was developed and absorbance at 450 nm measured as described previously. Cut-off point for a positive binding event was an absorbance value of 0.3 following background subtraction. In order to enhance the assay sensitivity, a chemiluminescent detection method was adopted where 50 μL SuperSignal ELISA Femto Substrate (Thermo Scientific) was added to each well following incubation with anti-HuCK HRP antibody and subsequent washing. The luminescence was read using Clariostar Plus microplate reader. A further modification to this protocol was done where various detection scAbs were directly conjugated with HRP and detected using chemiluminescent protocol as before.

[2] = target: T1, full length human tau protein 2N4R …; assay: sandwich ELISA, S1D12 mAb capture, chemiluminescence detection
Method: as §1

DGAE + LMT Agg [3] = target: T2, DGAE + LMT Agg; assay: sandwich ELISA, 423 mAb capture, dGAE species titrated, scAb detection at 10 ug/ml [D00041 Figure 34O]
T2 construct: also called dGAE agitated in the presence of LMTM (Total, Supernatant, Pellet)
Method: (§2) For preparing the aggregates, 10 μl 10 mM DTT was added to 1000 μl 100 μM dGAE and agitated with/without LMTM (1:5 ratio) at 700 rpm for 24 h at 37° C. Following overnight agitation, one third of each sample was kept aside as ‘total’ and the rest was spun down at 16000×g for 30 min and separated into ‘supernatant’ and ‘pellet’. The pellet was then resuspended in half the original volume for further experiments. […] Doubling dilutions of dGAE aggregate ‘total’, ‘supernatant’ and ‘pellet’ samples at 10 μg/ml starting concentration were added to designated wells in doubling dilutions in 1×PBS. dGAE monomer (non-aggregated) was included as assay control. All double dilutions were done in final volumes of 100 μl. This was left to incubate on lab bench for 1 h followed by the addition of test scAbs at 10 μg/ml.

[4] = target: T3, mouse tau (Isoform Tau-A) (mouse, UniProt P10637 2-733); assay: Western blot of brain homogenates
T3 construct: endogenous protein in mouse brain homogenate or plasma; isoform in the samples not determined; also called endogenous mouse tau

[5] = target: T4, human tau 296-390 (Line 1 transgene fragment) (human, UniProt P10636 613-707); assay: Western blot of brain homogenates
T4 construct: also called L1 fragment; 10-kDa tau fragment

[6] = target: T1, full length human tau protein 2N4R …; assay: direct ELISA, coated hT40
DGAE + LMT Agg [7] = target: T2, DGAE + LMT Agg; assay: sandwich ELISA, 423 mAb capture, dGAE species titrated, scAb detection at 10 ug/ml [D00039 Figure 34F]
Method: as §2

[8] = target: T1, full length human tau protein 2N4R …; assay: direct ELISA, coated hT40; remark: listed apart in the source

T1 sequence (P10636 other isoform, or with tags, fused parts or gaps limits assumed): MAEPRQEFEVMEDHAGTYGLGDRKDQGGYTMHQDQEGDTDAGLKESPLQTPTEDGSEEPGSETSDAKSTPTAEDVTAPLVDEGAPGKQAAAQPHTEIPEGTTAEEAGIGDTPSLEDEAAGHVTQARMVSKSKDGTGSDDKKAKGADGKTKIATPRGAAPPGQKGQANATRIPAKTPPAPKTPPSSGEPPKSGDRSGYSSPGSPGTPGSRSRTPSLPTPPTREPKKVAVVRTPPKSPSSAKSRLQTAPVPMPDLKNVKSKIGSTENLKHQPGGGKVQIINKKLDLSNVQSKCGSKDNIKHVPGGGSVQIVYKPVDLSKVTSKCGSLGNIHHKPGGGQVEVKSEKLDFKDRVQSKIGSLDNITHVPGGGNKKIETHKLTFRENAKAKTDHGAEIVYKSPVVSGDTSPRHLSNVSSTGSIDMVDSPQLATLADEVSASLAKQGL
T2 sequence (fragment, as listed by the source limits assumed): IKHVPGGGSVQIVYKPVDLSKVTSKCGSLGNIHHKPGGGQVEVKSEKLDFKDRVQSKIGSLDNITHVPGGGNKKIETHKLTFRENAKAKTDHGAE
T4 sequence (P10636 613-707): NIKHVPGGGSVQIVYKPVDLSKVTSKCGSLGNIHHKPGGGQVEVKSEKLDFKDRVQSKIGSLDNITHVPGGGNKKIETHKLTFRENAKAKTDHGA
T3 sequence (P10637 other isoform, or with tags, fused parts or gaps limits assumed): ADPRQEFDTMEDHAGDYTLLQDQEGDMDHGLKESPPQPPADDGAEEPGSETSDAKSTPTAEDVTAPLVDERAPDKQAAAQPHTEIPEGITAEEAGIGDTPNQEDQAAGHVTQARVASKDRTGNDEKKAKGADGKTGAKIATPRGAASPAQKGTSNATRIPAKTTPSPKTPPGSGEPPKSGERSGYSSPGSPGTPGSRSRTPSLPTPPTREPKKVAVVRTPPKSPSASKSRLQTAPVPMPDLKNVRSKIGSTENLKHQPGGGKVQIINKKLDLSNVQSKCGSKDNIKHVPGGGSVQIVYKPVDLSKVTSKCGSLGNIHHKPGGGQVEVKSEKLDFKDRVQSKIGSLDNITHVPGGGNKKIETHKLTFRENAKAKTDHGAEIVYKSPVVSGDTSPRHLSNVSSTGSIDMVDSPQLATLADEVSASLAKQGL

| Binder | LoD [1] | LoD [2] | also measured |
| --- | --- | --- | --- |
| CB7 scAb (scFv, scAb (scFv-HuCk-His)) scFv: QVQLQESGPSLVKPSQTLSLTCTVSGFSLTNYRVGWVRQAPGKALEWVSNIRSGGTTWYNPALKSRLSITADTSKSQVSLSLSSVTTEDTAVYYCARDSSGDLYAYDYWGPGLLVTVSSEGKSSGASGESKVDDQAVLTQPSSVSRSLGQSVSMTCSGSSSNVGYGNYMAWFQQVPGSAPKLLIYGATSRASGVPDRFSGSRSGNTATLTISSLQAEDEADYYCASYDSTSGGVFGSGTRLTVLG | 15 ng/mL | 3.33 ng/mL | – |
| CE3 scAb (scFv, scAb (scFv-HuCk-His)) scFv: QVRLQESGPSLVKPSQTLSVTCTVSGFSLISNAVGWVRQAPGKVPESLAGCSSDGKCYYNSALKSRLDITRDTSKNQISLSLSSVTTDDAAVYYCTRGYYPVYGYDYLGTIDYWGPGLLVTVSSEGKSSGASGESKVDDQAVLTQPSSVSGSLGQRVSITCSGSSSNVGRNDVAWFQQLPGSGLRTIIYGTTSRPSGIPDRFSGSKSGVTATLTIDSLQAEDEADYFCASGDSSAINDIFGSGTRLTVLG | – | – | binding result (DGAE + LMT Agg [3]): binds |
| CA4 scAb (scFv, scAb (scFv-HuCk-His)) scFv: QVQLQESGPSLVKPSQTLSLTCTVSGFSLTSYSVYWVRQAPGQALEWISIMYASGRVDYNPALKSRLSITRDTSKSQFSLSLSSVTTEDTAVYYCTRGIENWGPGLLVTVSSEGKSSGASGESKVDDDIQVTQSPSSLSASLTERVSITCRTSQSVNNYLSWYQQKPGQAPKLLIYYATRLYTDVPSRFSGSGSGTDYTLTITSLEADDTATYYCLQYDSTPLAFGGGTNVEIK | 6 ng/mL | 0.37 ng/mL | – |
| CC7 scAb (scFv, scAb (scFv-HuCk-His)) scFv: QVQLQESGPSLVKPSQTLSLTCTVSGFSLTSNAVIWVRQAPGKAPEWVALIDVDGDAAYDPALKSRLSITRDTSKSQVSLSLRSVTTEDTAVYYCARDYGSWGYVSDIDYWGPGLLVTVSSEGKSSGASGESKVDDRVVRTQPSSVSGSLGQRVSITCSGSYITGSSVGWFQQVPGSGLKTVIYDNNDRPSGVPDRFSGSKSGDTATLTISSLQAEDEADYYCASYDTSNIGLFGSGTRLTVLG | 6 ng/mL | 3.33 ng/mL | – |
| CC7 mAb (antibody, mouse IgG2a, V domains shown, also called CC7 antibody) VH: QVQLQESGPSLVKPSQTLSLTCTVSGFSLTSNAVIWVRQAPGKAPEWVALIDVDGDAAYDPALKSRLSITRDTSKSQVSLSLRSVTTEDTAVYYCARDYGSWGYVSDIDYWGPGLLVTVSS VL: RVVRTQPSSVSGSLGQRVSITCSGSYITGSSVGWFQQVPGSGLKTVIYDNNDRPSGVPDRFSGSKSGDTATLTISSLQAEDEADYYCASYDTSNIGLFGSGTRLTVLG | – | – | binding result [4]: no binding (tested: 20 µg brain protein); binding result [5]: no binding (tested: 20 µg brain protein) |
| CB7 mAb (antibody, mouse IgG2a, V domains shown, also called CB7 antibody) VH: QVQLQESGPSLVKPSQTLSLTCTVSGFSLTNYRVGWVRQAPGKALEWVSNIRSGGTTWYNPALKSRLSITADTSKSQVSLSLSSVTTEDTAVYYCARDSSGDLYAYDYWGPGLLVTVSS VL: QAVLTQPSSVSRSLGQSVSMTCSGSSSNVGYGNYMAWFQQVPGSAPKLLIYGATSRASGVPDRFSGSRSGNTATLTISSLQAEDEADYYCASYDSTSGGVFGSGTRLTVLG | – | – | binding result [4]: no binding (tested: 20 µg brain protein); binding result [5]: no binding (tested: 20 µg brain protein) |
| 412E10 scAb (scFv, scAb (scFv-HuCk-His)) scFv: QVQLQESGPSLVKPSQTLSLTCTVSGFSVISDSVAWVRQAPGKVPEWLGASGSSGNKYYNPALKSRLSITRDTSKSQVSLSLSSVTTEDTAVYYCARGIIAGVDVWGRGLLVTVSSEGKSSGASGESKVDDQAVLTQPSSVSGSLGQRVSITCSGSSSNVGYGNYVGWYQQVPGSAPKLLIYGTAIRASGVPDRFSGSRSGDTATLTITSLQAEDEADYYCASYQSNYAFFGSGTRLTVLG | 20 ng/mL | 0.37 ng/mL | – |
| CB3 scAb (scFv, scAb (scFv-HuCk-His)) scFv: QVQLQESGPSLVKPSQTLSLTCTVSGFSLSSVAVNWVRQAPGKVPEWLGGIISNGGTGYNPALKSRLSITRDTSKSQVSLALTHVTTEDTAVYYCGRGVEWEGSMDYLGPGLLVTVSSEGKSSGSGSETKVDDQSVLTQPSSVSGFLGQRVTITCSGSSSNVGAGSYVGWYQQVPGSGLRILIYGATKRASGLPDRFSGSRSGNTATLTISSLQAEDEADYYCVSYQTDFTLVFGSGTRLTVLG | – | – | EC50 (read off the curve) [6]: ~0.1 µg/mL |
| S1G10 scAb (scFv, scAb (scFv-HuCk-His)) scFv: QVQLQESGPSLVKPSQTLSLTCTVSGFSLTSNSVGWVRQAPGKAPEWVAGIDTDGEEGYNPALNSRLSITRDTSKSQVSLSLSSVTSEDTAVYYCGRSYRADGLAYGYVQAIDYWGPGLLVTVSSEGKSSGASGESKVDDQAVLTQPSSMSGSLGQRVSITCSGSFIGISSVGWFQQLPGSGLRTIIVASDGRPSGVPDRFSMSKSGNTATLTISSLQAEDEADYFCGSSDRTQYTGVFGSGTRLTVLG | 2 ng/mL | 0.12 ng/mL | – |
| S1G2 scAb (scFv, scAb (scFv-HuCk-His)) scFv: QVQLQESGPSLVKPSQTLSLTCTVSGFSLTSNSVGWVRQAPGKAPEWVAGIDTDGEEGYNPALNSRLSITRDTSKSQVSLSLSSVTSEDTAVYYCGRSYRADGLAYGYVQAIDYWGPGLLVTVSSEGKSSGASGESKVDDQAVVTQPSSVSGSLGQRVSITCSGSFIGISSVGWFQQLPGSGLRTIIVASDGRPSGVPDRFSMSKSGNTATLTISSLQAEDEADYFCGSSDRTPYTGVFGSGTRLTVLG | – | 0.12 ng/mL | – |
| CA9 scAb (scFv, scAb (scFv-HuCk-His)) scFv: QVQLQESGPSLVKPSQTLSLTCTVSGFSLTSNSVGWVRQAPGKAPEWVAGIDTDGEEGYNPALNSRLSITRDTSKSQVSLSLSSVTSEDTAVYYCGRSYRSDGLAYGYVQAIDYWGPGLLVTVSSEGKSSGASGESKVDDQAVLTQPASVSGSLGQRVSITCSGSFIGISSVGWFQQLPGSGLRTIIVASDGRPSGVPDRFSMSKSGNTATLTISSLQAEDEADYFCGSSDRTQYTGVFGSGTRLTVLG | – | – | binding result (DGAE + LMT Agg [7]): binds |
| 412G11 (scFv) scAb: QVRLQESGPSLVKPSQTLSLTCTVSGFSLTSYALGWVRQAPGRAPEWIGNIWRGGRIEYNPALKSRLSITRDTSKSQVSLSLSSVTTEDTAVYYCSRSGGDWGPGLLVTVSSEGKSSGASGESKVDDQAVLTQPSSVSGSLGQRVSITCSGSSSNVGYGNYVGWYQQVPGSAPKLLIYGATSRASGVPDRFSGSRSENTATLTISSLQAEDEADYYCASYDRSESVVFGSGTRLTVLG | – | – | EC50 (read off the curve) [8]: ~6 µg/mL |
